From patent US20240390418A1 (MINERVA BIOTECHNOLOGIES, published 2024)
Changes are numbered by the printed parent chain.

T1: C-10 peptide
T1 construct: also called PSMGFR C-10; PSMGFR minus 10 amino acids from the C-terminus
T1 peptide: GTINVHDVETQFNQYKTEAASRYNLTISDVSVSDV

T2: N-10 peptide
T2 construct: also called PSMGFR N-10; PSMGFR minus 10 amino acids from the N-terminus
T2 peptide: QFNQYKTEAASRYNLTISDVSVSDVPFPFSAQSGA

T3: N-19 peptide
T3 peptide: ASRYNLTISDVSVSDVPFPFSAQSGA

T4: N-19/C-5 peptide
T4 peptide: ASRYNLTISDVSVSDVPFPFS

T5: N-10/C-5 peptide
T5 peptide: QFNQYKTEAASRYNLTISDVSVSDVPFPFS

T6: N-30 peptide
T6 peptide: SVSDVPFPFSAQSGA

T7: N-26 peptide
T7 peptide: ISDVSVSDVPFPFSAQSGA

T8: N+9/C-9 peptide
T8 peptide: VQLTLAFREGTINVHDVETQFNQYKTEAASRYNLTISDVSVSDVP

T9: NME7AB (Homo sapiens (Human), UniProt Q9Y5B8 92-376)
T9 construct: NME7A in the text appears to be NME7AB; also called NM23-H7; NME7A
T9 sequence: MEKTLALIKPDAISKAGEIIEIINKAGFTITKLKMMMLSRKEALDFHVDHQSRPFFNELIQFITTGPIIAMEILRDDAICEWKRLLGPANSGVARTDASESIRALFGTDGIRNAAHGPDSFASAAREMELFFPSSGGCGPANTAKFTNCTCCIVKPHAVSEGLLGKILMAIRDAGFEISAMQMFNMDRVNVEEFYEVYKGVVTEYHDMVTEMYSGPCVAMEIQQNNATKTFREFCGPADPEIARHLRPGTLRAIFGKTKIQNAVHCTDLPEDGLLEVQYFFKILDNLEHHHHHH

B1: monoclonal antibody B2 (antibody, V domains shown)
VH: EVVLVESGGGLVEPGGSLKLSCVASGFAFSTFAMSWIRQTPEKRLEWVAAISNGGGYTYYPDTLKGRFSISRDNAKNTLYLQMSSLRSEDTAVYYCARRYYDLYFDLWGRGTSLIVSS
VL: DILMTQTPLSLPVSLGDQASISCRSSQNIVHSNGNTYLEWYLQKPGQSPKLLIYKVSNRFSGVPDRFSGSGSGTDFTLKISRVEAEDLGVYYCFQDSHVPLTFGAGTRLELK
notes: Raised against PSMGFR
B2: monoclonal antibody 17H6 (antibody, V domains shown)
VH: EVKLVESGGGLVQPGGSLRLSCATSGFTFTDYYMSWVRQPPRKALEWLGFIRNKANGYTAEYSASVKGRFTISRDVSQNLLYLQMNILRAEDSATYYCAKDYYGSNPAWFAYWGQGTLVTVSA
VL: B1 VL with N28S, N33S, Y37F, T74I, D96G, L101F, A105S, R108K, L111I
notes: Raised against the N+9/C-9 peptide; also called N+9/C-9 antibody 17H6
B3: monoclonal antibody B7 (antibody, V domains shown)
VH: EVQVVESGGDLVKPGGSLKLSCAASGFTFSRYGMSWVRQTPDKRLEWVATISSGGTYIYYPDSVKGRFTISRDNAKNTLYLQMSSLKSEDTAMYYCARDNYGSSYDYAMDYWGQGTSVTVSS
VL: B1 VL with I2V, N28T, R108K
notes: Raised against PSMGFR
B4: monoclonal antibody B12 (antibody, V domains shown)
VH: QAQLKESGPGLVAPSQSLSITCTVSGFSLTSYGVHWVRQPPGKGLEWLGVIWPGGSTNYNSTLMSRMRIIKDNSKSQVFLKMNSLQIDDTAMYYCARDRTPRVGAWFAYWGQGTLVTVSA
VL: IIVLTQSPASLAVSLGQRATISCRASESVATYGNNFMQWYQQKPGQPPKLLIYLASTLDSGVPARFSGSGSRTDFTLTIDPVEADDAATYYCQQNNEDPPTFGGGTKLEIK
notes: Raised against PSMGFR
B5: monoclonal antibody 8C7F3 (antibody, V domains shown)
VH: EVMLVESGGGLVKPGGSLKLSCAASGFTFSTYAMSWVRQTPEKRLEWVAAISNGGGYTYYPDSLKGRFTISRDNAKNTLYLQMSSLRSEDTATYYCARRYYDHYFDYWGQGTALTVSS
VL: B4 VL
notes: Raised against PSMGFR
B6: monoclonal antibody B9 (antibody, V domains shown)
VH: B3 VH
VL: QIVLTQSPAIMSASPGEEVTLTCSASSSVSYMHWFQQRPGTSPKLWIYTTSNLASGVPARFSGSGSGTSYSLTISRMEAEDAATYYCQQRSSYPFTFGSGTKLEIK
notes: Raised against PSMGFR
B7: monoclonal antibody 20A10 (antibody, V domains shown)
VH: EVMLVESGGGLVKPGGSLKLSCAASGFTFSTYAMSWIRQTPEKRLEWVASIGRAGSTYYSDSVKGRFTISRDNVRNILYLQMSSLRSEDTAMYYCARGPIYNDYDEFAYWGQGTLVTVSA
VL: NIMMTQSPSSLAVSAGEKVTMSCKSSQSVLYSSNQKNYLAWYQQKPGQSPKLLIYWASTRESGVPDRFTGSGSGTDFTLTISSVQAEDLAVYYCHQYLSSLTFGAGTKLELK
notes: Raised against PSMGFR; also called MN20A10; anti-PSMGFR antibody 20A10
B8: monoclonal antibody 3C2B1 (antibody, V domains shown)
VH: EVMLVESGGGLVKPGGSLKLSCAASGITFSTYTMSWVRQTPEKRLEWVATISTGGDKTYYSDSVKGRFTISRDNAKNNLYLQMSSLRSEDTALYYCARGTTAMYYYAMDYWGQGTSVTVSS
VL: DIVLTQSPASLAVSLGQRATISCRASKSISTSDYNYIHWYQQKPGQPPKLLIYLASNLESGVPARFSGSGSGTDFTLNIHPVEEEDAATYYCQHSRELPLTFGAGTKLELK
notes: Raised against PSMGFR; also called MN3C2B1; anti-PSMGFR antibody 3C2B1
B9: humanized MNC3 scFv-Fc (Fc fusion)
VH: QVQLVQSGAEVKKPGASVKVSCKASGYTFTDYAMNWVRQAPGQGLEWMGVISTFSGNTNFNQKFKGRVTMTTDTSTSTAYMELRSLRSDDTAVYYCARSDYYGPYFDYWGQGTTLTVSS
VL: DIVMTQTPLSLSVTPGQPASISCRSSQTIVHSNGNTYLEWYLQKPGQSPQLLIYKVSNRFSGVPDRFSGSGSGTDFTLKISRVEAEDVGVYYCFQGSHVPFTFGGGTKVEIKRT
B10: PSMGFR peptide (peptide)
peptide: GTINVHDVETQFNQYKTEAASRYNLTISDVSVSDVPFPFSAQSGA
notes: also called MUC1* peptide
B11: humanized MNC2 scFv (scFv, V domains shown)
VH: EVQLVESGGGLVKPGGSLRLSCAASGFTFSGYAMSWVRQAPGKGLEWVSTISSGGTYIYYPDSVKGRFTISRDNAKNSLYLQMNSLRAEDTAVYYCARLGGDNYYEYFDVWGKGTTVTVSS
VL: DIVLTQSPASLAVSPGQRATITCRASKSVSTSGYSYMHWYQQKPGQPPKLLIYLASNLESGVPARFSGSGSGTDFTLTINPVEANDTANYYCQHSRELPFTFGGGTKVEIKR
notes: also called huMNC2scFv; huMNC2 scFv
B12: monoclonal antibody 28F9 (antibody, V domains shown)
VH: QVQLQQPGAELVQPGASVKLSCKASGYTFTGYFLYWVKQRPGHGLEWIGGIHPSNGDTDFNEKFKNKATLTVDISSSTAYMQLSSLTSEDSAVYYCTLLIGVYWGQGTTLTVSS
VL: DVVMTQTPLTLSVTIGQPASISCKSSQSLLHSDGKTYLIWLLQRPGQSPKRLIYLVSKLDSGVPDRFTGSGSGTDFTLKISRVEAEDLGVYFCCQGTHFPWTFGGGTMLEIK
notes: Raised against PSMGFR; also called MN28F9; anti-PSMGFR antibody 28F9
B13: monoclonal antibody 18G12 (antibody, V domains shown)
VH: B12 VH with P7S, Q13K, H43Q, H52N, S54D, D57G, T58I, K65R, I74K, V102N
VL: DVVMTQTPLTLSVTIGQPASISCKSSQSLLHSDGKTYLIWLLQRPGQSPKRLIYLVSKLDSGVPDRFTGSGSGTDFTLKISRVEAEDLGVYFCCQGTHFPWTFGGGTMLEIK
notes: Raised against PSMGFR; also called MN18G12; anti-PSMGFR antibody 18G12

Tests used:
C-10 peptide [1] = target: T1, C-10 peptide; assay: ELISA, peptide on plate (FIG. 201C)
Protocol: (§1) FIG. 201A-201C show graphs of ELISA assays to determine the binding of another set of antibodies generated by immunizing animals with the PSMGFR peptide. […] F3, B12, B2, B7, B9, 8C7F3 and H11 all bound to the PSMGFR peptide and to the N-10 peptide.
(§2) This same ELISA assay was performed on the antibodies of the invention (FIGS. 64-66 and FIG. 201). Note that only 20A10 exactly matches the binding profile of MNC2 and MNE6. 25E6, 28F9 and 18G12 are all able to bind to the N-10 peptide. 18B4 is the only antibody raised against the PSMGFR peptide that requires the 10 most N-terminal amino acids of the peptide. The color of the bars for each antibody in the ELISA graph are color coded to match the deductive cognate sequence, or a portion thereof, of that antibody. In addition, another set of antibodies was assayed by ELISA (FIG. 201). Of this set, B12, B2, B7, B9, 8C7F3, and H11 bound to the PSMGFR peptide, bound to the N-10 peptide, but not to the C-10 peptide (FIG. 201). Although these antibodies were raised against the N+20/C-27 peptide, all but one, 45C11, still bind to the PSMGFR peptide, albeit at the N-terminal portion of PSMGFR.

PSMGFR peptide [2] = target: B10; assay: ELISA, peptide on plate (FIG. 201A)
Protocol: as §1, §2

N-10 peptide [3] = target: T2, N-10 peptide; assay: ELISA, peptide on plate (FIG. 201B)
Protocol: as §1, §2

N-19 peptide = target: T3, N-19 peptide; assay: ELISA, peptide on plate (FIG. 69)
N-19/C-5 peptide = target: T4, N-19/C-5 peptide; assay: ELISA, peptide on plate (FIG. 69)
N-10/C-5 peptide = target: T5, N-10/C-5 peptide; assay: ELISA, peptide on plate (FIG. 69)
N-30 peptide = target: T6, N-30 peptide; assay: ELISA, peptide on plate (FIG. 69)
N-26 peptide = target: T7, N-26 peptide; assay: ELISA, peptide on plate (FIG. 69)
N-10 peptide [4] = target: T2, N-10 peptide; assay: ELISA, peptide on plate (FIG. 69)
PSMGFR peptide [5] = target: B10; assay: peptide ELISA, told in tissue legend
N-10 peptide [6] = target: T2, N-10 peptide; assay: peptide ELISA, told in tissue legend
C-10 peptide [7] = target: T1, C-10 peptide; assay: ELISA, peptide on plate (FIG. 64)
N+9/C-9 peptide = target: T8, N+9/C-9 peptide; assay: ELISA, peptide on plate (FIG. 64)
C-10 peptide [8] = target: T1, C-10 peptide; assay: peptide ELISA
PSMGFR peptide [9] = target: B10; assay: ELISA, peptide on plate (FIG. 9)
C-10 peptide [10] = target: T1, C-10 peptide; assay: ELISA, peptide on plate (FIG. 9)
N-10 peptide [11] = target: T2, N-10 peptide; assay: ELISA, peptide on plate (FIG. 9)
NME7AB = target: T9, NME7AB; assay: ELISA, peptide on plate (FIG. 2A)
Protocol: FIGS. 2A-2I show results of ELISA assays. MUC1* peptides PSMGFR, PSMGFR minus 10 amino acids from the N-terminus aka N-10, or PSMGFR minus 10 amino acids from the C-terminus, aka C-10 are immobilized on the plate and the following are assayed for binding: NME7-AB (FIG. 2A), MNC2 monoclonal antibody (FIG. 2B), MNE6 monoclonal antibody (FIG. 2C), or dimeric NME1 (FIG. 2D). […] MUC1* peptides PSMGFR minus 10 amino acids from the N-terminus aka N-10, or PSMGFR minus 10 amino acids from the C-terminus, aka C-10, are immobilized on the plate and the following are assayed for binding: MNC3 (FIG. 2E) and MNC8 (FIG. 2F).

PSMGFR peptide [12] = target: B10; assay: ELISA, PSMGFR peptide on plate (FIG. 5)
Protocol: Humanized MNC2 scFv is then incubated with the surface, washed and detected according to standard methods.

PSMGFR peptide [13] = target: B10; assay: peptide binding, told in Western blot legend
N-10 peptide [14] = target: T2, N-10 peptide; assay: ELISA, peptide on plate (FIG. 64)

B1: no binding (C-10 peptide [1]); binds (PSMGFR peptide [2]); binds (N-10 peptide [3]).

B2: no binding (N-19 peptide); no binding (N-19/C-5 peptide); no binding (N-10/C-5 peptide). B2: no binding (N-30 peptide); no binding (N-26 peptide); no binding (N-10 peptide [4]).

B3: no binding (C-10 peptide [1]); binds (PSMGFR peptide [2]); binds (N-10 peptide [3]).

B4: no binding (C-10 peptide [1]); binds (PSMGFR peptide [2]); binds (N-10 peptide [3]).

B5: no binding (C-10 peptide [1]); binds (PSMGFR peptide [2]); binds (N-10 peptide [3]).

B6: no binding (C-10 peptide [1]); binds (PSMGFR peptide [2]); binds (N-10 peptide [3]).

B7: binds (PSMGFR peptide [5]); binds (N-10 peptide [6]); no binding (C-10 peptide [7]). B7: no binding (N+9/C-9 peptide).

B8: binds (PSMGFR peptide [5]); binds (N-10 peptide [6]); no binding (C-10 peptide [8]).

B9: binds (PSMGFR peptide [9]); binds (C-10 peptide [10]); binds (N-10 peptide [11]).

B10: binds (NME7AB).

Binder B11 has an EC50 (PSMGFR peptide [12]) of roughly 333 nM.

B12: binds (PSMGFR peptide [13]); binds (N+9/C-9 peptide); binds (N-10 peptide [14]). B12: binds (C-10 peptide [8]).

B13: binds (PSMGFR peptide [13]); binds (N+9/C-9 peptide); binds (N-10 peptide [14]). B13: binds (C-10 peptide [8]).
